The source of these data is the supplement of paper PMC9112550, “Optimization of the antimicrobial peptide Bac7 by deep mutational scanning” (BMC Biology, 2022).

The test system of this series is Escherichia coli TOP10. The series is described as follows: shrunken log2 fold change of peptide-encoding DNA abundance (4.5 h post-induction vs induction); higher = less antimicrobial activity (less host growth inhibition). Particulars: time post-induction: 4.5 h; library: site-saturation at positions 5, 18, 19, 20.
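Further: peptides expressed intracellularly from a pBAD plasmid library in pooled LB shake-flask culture, induced with 0.3% L-arabinose, DNA abundance read by NGS, three biological replicates, DESeq2 with apeglm shrinkage.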

For RRIRGRPPRLPRPRPRPHQSPRP, the “shrunken log2 fold change” value was determined as 0.12. In the case of RRIRARPPRLPRPRPRPRPRPRP, the “shrunken log2 fold change” value came to 1.99. With RRIRMRPPRLPRPRPRPRTEPRP the figure was 0.718; with RRIRNRPPRLPRPRPRPHHVPRP, -0.0011. With RRIRKRPPRLPRPRPRPFCPPRP the figure was 0.0562; with RRIRARPPRLPRPRPRPDQHPRP, 0.0116; with RRIRFRPPRLPRPRPRPPVMPRP, 0.0132. RRIRGRPPRLPRPRPRPMGCPRP: the “shrunken log2 fold change” value was 0.0963.

As to RRIRDRPPRLPRPRPRPSCEPRP, the “shrunken log2 fold change” value stood at 0.042. For the sequence RRIRMRPPRLPRPRPRPPSEPRP, the “shrunken log2 fold change” value is 0.962. With RRIRARPPRLPRPRPRPLFWPRP the figure was 0.678. In the case of RRIRIRPPRLPRPRPRPHMLPRP, the “shrunken log2 fold change” value was -0.943.

As for RRIRRRPPRLPRPRPRPGERPRP, the “shrunken log2 fold change” value is 0.0829.

Take RRIRFRPPRLPRPRPRPDRVPRP: the “shrunken log2 fold change” value is 0.0813. For RRIRLRPPRLPRPRPRPALCPRP, the “shrunken log2 fold change” value came to 0.00966. With RRIRCRPPRLPRPRPRPFTPPRP the figure was -0.497; with RRIRMRPPRLPRPRPRPYDKPRP, -0.351. With RRIRERPPRLPRPRPRPQNLPRP, the “shrunken log2 fold change” value was -0.375. Consider RRIRVRPPRLPRPRPRPWLNPRP, for which the “shrunken log2 fold change” value was -0.106. For the sequence RRIRNRPPRLPRPRPRPWNPPRP, the “shrunken log2 fold change” value is -0.0102. With RRIRLRPPRLPRPRPRPHYNPRP the figure was -0.779; with RRIRHRPPRLPRPRPRPMLMPRP, -0.121; with RRIRFRPPRLPRPRPRPDAIPRP, 0.041.

With RRIRPRPPRLPRPRPRPIHDPRP, the “shrunken log2 fold change” value was -0.0217.

Regarding RRIRRRPPRLPRPRPRPIIFPRP, the “shrunken log2 fold change” value was -0.0332. In the case of RRIRMRPPRLPRPRPRPYNIPRP, the “shrunken log2 fold change” value was -0.358. On to RRIRKRPPRLPRPRPRPTRVPRP, for which the “shrunken log2 fold change” value was determined as 0.53. RRIRQRPPRLPRPRPRPATQPRP: the “shrunken log2 fold change” value was found to be 0.176. With RRIRPRPPRLPRPRPRPPGYPRP, the “shrunken log2 fold change” value is 0.116. With RRIRCRPPRLPRPRPRPSYSPRP the figure was -1.04; with RRIRVRPPRLPRPRPRPYSPPRP, -0.181. For the sequence RRIRCRPPRLPRPRPRPQLEPRP, the “shrunken log2 fold change” value is -0.135.

Turning to RRIRERPPRLPRPRPRPEDPPRP, the “shrunken log2 fold change” value is -0.134.

For RRIRRRPPRLPRPRPRPHAYPRP, the “shrunken log2 fold change” value is -0.394. As for RRIRPRPPRLPRPRPRPCWIPRP, the “shrunken log2 fold change” value is -0.456. With RRIRKRPPRLPRPRPRPKVQPRP the figure was 0.092; with RRIRWRPPRLPRPRPRPNDCPRP, -0.0115; with RRIRWRPPRLPRPRPRPVTAPRP, 0.138. Turning to RRIRKRPPRLPRPRPRPIYVPRP, the “shrunken log2 fold change” value amounted to 0.0461. With RRIRARPPRLPRPRPRPYQAPRP the figure was -0.0488; with RRIRWRPPRLPRPRPRPWVCPRP, 0.186; with RRIRQRPPRLPRPRPRPDCYPRP, -0.304. In the case of RRIRRRPPRLPRPRPRPNKHPRP, the “shrunken log2 fold change” value amounted to 0.117. For RRIRHRPPRLPRPRPRPRTAPRP, the “shrunken log2 fold change” value came out at 0.264. As for RRIRKRPPRLPRPRPRPDEPPRP, the “shrunken log2 fold change” value is 2.05. To RRIRARPPRLPRPRPRPWAPPRP belongs 0.0486. Consider RRIRERPPRLPRPRPRPYYYPRP, for which the “shrunken log2 fold change” value was -0.732. Turning to RRIRERPPRLPRPRPRPMGRPRP, the “shrunken log2 fold change” value came out at 0.0998. With RRIRYRPPRLPRPRPRPLAHPRP the figure was -0.15.

As for RRIRWRPPRLPRPRPRPPYDPRP, the “shrunken log2 fold change” value is -0.0917. To RRIRTRPPRLPRPRPRPFKNPRP belongs 0.0716; to RRIRMRPPRLPRPRPRPSERPRP, 0.365; to RRIRVRPPRLPRPRPRPWIGPRP, -0.166. In the case of RRIRPRPPRLPRPRPRPMSQPRP, the “shrunken log2 fold change” value is 0.0517.

With RRIRVRPPRLPRPRPRPYMLPRP, the “shrunken log2 fold change” value was -0.71. On to RRIRCRPPRLPRPRPRPDPWPRP, for which the “shrunken log2 fold change” value is -0.0438. Take RRIRKRPPRLPRPRPRPHTTPRP: the “shrunken log2 fold change” value was determined as 0.0925. With RRIRSRPPRLPRPRPRPKGKPRP the figure was 0.0401; with RRIRSRPPRLPRPRPRPARCPRP, 0.114. With RRIRIRPPRLPRPRPRPMQCPRP the figure was -0.235; with RRIRYRPPRLPRPRPRPKKKPRP, -0.104; with RRIRARPPRLPRPRPRPYCDPRP, -0.425.

Consider RRIRLRPPRLPRPRPRPFWDPRP, for which the “shrunken log2 fold change” value came out at 0.184. Regarding RRIRYRPPRLPRPRPRPRHDPRP, the “shrunken log2 fold change” value was -0.237. To RRIRNRPPRLPRPRPRPRWYPRP belongs -0.194. With RRIRMRPPRLPRPRPRPIWAPRP the figure was 0.114. To RRIRDRPPRLPRPRPRPFSMPRP belongs -0.506. Take RRIRWRPPRLPRPRPRPPMRPRP: the “shrunken log2 fold change” value was found to be 1.18.

For the sequence RRIRIRPPRLPRPRPRPWYTPRP, the “shrunken log2 fold change” value is -0.122. With RRIRSRPPRLPRPRPRPYEMPRP the figure was -0.234; with RRIRRRPPRLPRPRPRPWFVPRP, 0.214; with RRIRKRPPRLPRPRPRPSKLPRP, 0.0104. With RRIRKRPPRLPRPRPRPAHLPRP the figure was -0.00667; with RRIRGRPPRLPRPRPRPYQYPRP, -0.0692; with RRIRPRPPRLPRPRPRPMFQPRP, -0.241.

Regarding RRIRMRPPRLPRPRPRPKHSPRP, the “shrunken log2 fold change” value was 0.247. Consider RRIRQRPPRLPRPRPRPEVHPRP, for which the “shrunken log2 fold change” value was determined as 0.038. For the sequence RRIRRRPPRLPRPRPRPHYFPRP, the “shrunken log2 fold change” value was -0.173. In the case of RRIRFRPPRLPRPRPRPQVRPRP, the “shrunken log2 fold change” value was determined as 0.305. To RRIRERPPRLPRPRPRPNADPRP belongs -0.0389; to RRIRVRPPRLPRPRPRPSAVPRP, -0.0662; to RRIRSRPPRLPRPRPRPYECPRP, -0.356. Take RRIRPRPPRLPRPRPRPKLAPRP: the “shrunken log2 fold change” value stood at 0.405. With RRIRMRPPRLPRPRPRPSNDPRP, the “shrunken log2 fold change” value came out at 0.184.

As to RRIRQRPPRLPRPRPRPVLVPRP, the “shrunken log2 fold change” value stood at 0.328. To RRIRYRPPRLPRPRPRPNHWPRP belongs -0.4; to RRIRIRPPRLPRPRPRPFWTPRP, -0.353. RRIRLRPPRLPRPRPRPRGFPRP: the “shrunken log2 fold change” value stood at 0.124. With RRIRKRPPRLPRPRPRPYEFPRP, the “shrunken log2 fold change” value was found to be 0.101. To RRIRSRPPRLPRPRPRPISVPRP belongs -0.151; to RRIRQRPPRLPRPRPRPEMFPRP, -0.118. With RRIRPRPPRLPRPRPRPQDYPRP the figure was -0.0245. To RRIRFRPPRLPRPRPRPFRMPRP belongs -0.173; to RRIRFRPPRLPRPRPRPPTPPRP, 0.908.

With RRIRMRPPRLPRPRPRPYLKPRP, the “shrunken log2 fold change” value was -0.00107. To RRIRVRPPRLPRPRPRPCVNPRP belongs 0.125.

As for RRIRVRPPRLPRPRPRPTHQPRP, the “shrunken log2 fold change” value is 0.209. To RRIRWRPPRLPRPRPRPTESPRP belongs 0.189; to RRIRMRPPRLPRPRPRPLAQPRP, 0.634. Regarding RRIRARPPRLPRPRPRPTGNPRP, the “shrunken log2 fold change” value turned out to be 0.186.

RRIRHRPPRLPRPRPRPLRFPRP: the “shrunken log2 fold change” value is -0.172. To RRIRVRPPRLPRPRPRPHMKPRP belongs -0.483; to RRIRSRPPRLPRPRPRPYKWPRP, -0.18. In the case of RRIRSRPPRLPRPRPRPHTTPRP, the “shrunken log2 fold change” value is -0.0736.

Turning to RRIRSRPPRLPRPRPRPICPPRP, the “shrunken log2 fold change” value is -0.055. As for RRIRERPPRLPRPRPRPGHLPRP, the “shrunken log2 fold change” value is -0.0138. To RRIRDRPPRLPRPRPRPCVDPRP belongs 0.0635; to RRIRMRPPRLPRPRPRPNIWPRP, 0.785.

In the case of RRIRCRPPRLPRPRPRPKFQPRP, the “shrunken log2 fold change” value is -0.0341. With RRIRDRPPRLPRPRPRPTKMPRP the figure was 0.269. Turning to RRIRRRPPRLPRPRPRPKRMPRP, the “shrunken log2 fold change” value turned out to be 0.514. To RRIRLRPPRLPRPRPRPEVRPRP belongs -0.0732; to RRIRERPPRLPRPRPRPRQYPRP, -0.369; to RRIRDRPPRLPRPRPRPMRKPRP, 0.763. With RRIRVRPPRLPRPRPRPRDFPRP the figure was 0.0486; with RRIRSRPPRLPRPRPRPMDKPRP, 0.0107. With RRIRARPPRLPRPRPRPSVMPRP, the “shrunken log2 fold change” value was determined as 0.00738. To RRIRERPPRLPRPRPRPYHQPRP belongs -0.416; to RRIRERPPRLPRPRPRPFRNPRP, -0.105.

Turning to RRIRCRPPRLPRPRPRPQTVPRP, the “shrunken log2 fold change” value is -0.275. With RRIRGRPPRLPRPRPRPFAYPRP, the “shrunken log2 fold change” value is 0.184. As to RRIRDRPPRLPRPRPRPQAEPRP, the “shrunken log2 fold change” value was -0.129. With RRIRFRPPRLPRPRPRPWASPRP the figure was -0.0247. With RRIRHRPPRLPRPRPRPNAHPRP the figure was -0.0872. For the sequence RRIRCRPPRLPRPRPRPMNPPRP, the “shrunken log2 fold change” value is -0.24.
